Measured values from the supplement of paper PMC9170038.

Tested on: MS2 coat protein
Experiment: apparent KD of MS2 coat protein; designed switch direction (-1 OFF switch, 1 ON switch): -1; higher = weaker reporter binding
Procedure, shortened: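 Designed RNA switches sharing common flanks were transcribed on Illumina chips by stalled E. coli RNA polymerase. They were titrated with SNAP-549-labelled MS2 coat protein, from 0.7 or 1.5 nM doubling to 3 µM, in Tris-HCl pH 7.5 buffer with KCl, MgCl2, BSA, DTT, tRNA and Tween-20. Titrations ran without input, with 200 uM small-molecule ligand, or with an oligonucleotide input. The apparent KD of each design is the median over its clusters, after curve-fitting of normalised cluster fluorescence.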

[1] = input ligand: microRNA oligo, concentration not stated
[2] = Eterna round: R95, input ligand: microRNA oligo, concentration not stated
[3] = Eterna round: R95, input ligand: FMN 200 uM
[4] = Eterna round: R95, input ligand: none

Sequence	apparent KD of MS2 coat protein (input ligand: FMN 200 uM) [nM]	apparent KD of MS2 coat protein [1] [nM]	apparent KD of MS2 coat protein (input ligand: none) [nM]	apparent KD of MS2 coat protein [2] [nM]	apparent KD of MS2 coat protein [3] [nM]	apparent KD of MS2 coat protein [4] [nM]
UGUACUAUGCGAGCUGACUUGCGUAGUGCAGCAGGUGAAACAUGAGGAUCACCCAUGUCCUCAUUUGCUCGUCUUAU [SL-sv3-2.02 JL mod] (Eterna round: R96, puzzle: Sensor v3, turn-off variant 2)	45.2	399	43.1			
UCGGUGACAGGAUAUACAUGAGGAUCACCCAUGUUAAGAAGAGAAAGGGCAGGAAGAGGUAGAAGGGUCGCUGU [JL JR_Exclu3_Sub033 mod] (puzzle: Exclusion 3)				37.8		
CCGCAAAUUGAGGAUAUCGUAUCGGAUACGAUACGAGAAGGCGAAACAUGAGGAUCACCCAUGUGUCCUAGCGG [Fiskers Ex 6 - 33] (puzzle: Exclusion 6)				12	18.2	14.4
AGCAUGAGAGAGGAUAUGGUCGCCGCAACAUGACCAGAAGGCUCAACAUGAGGAUCACCCAUGUGGCCCGGCUC [Eternabot (L1) Solution 33] (Eterna round: R97, puzzle: Exclusion 6)	33.2		19.5			
AGUACUAACACGAGAGUGUUAGUACAAUAAGCUUGUGUUACAUGAGGAUCACCCAUGUCCUCAUAAGCUCGUCUUAA [Mat - Sensor v3 - Turn-off var 2 - D58] (puzzle: Sensor v3, turn-off variant 2)				727	41.3	42.5
UUUUUUUUGCGAGGAUAUGCUUUUAGUUAGUUAGCAGAAGGCGCGUUUCUUUUCUCCUCUUCUUACAUGAGGAUCACCCAUGUU [JR_ExcNG1_Sub034] (Eterna round: R96, puzzle: Exclusion NG 1)	55.7	36.7	54.1			
CAGUACUGAGGAUAUACAUGAGGAUCACCCAUGUUUUCCAGCUAGGAAACUAGCAAAUGUAGAAGGCAGUACUG [Salish 065 m5] (Eterna round: R97, puzzle: Exclusion 3)	253		25.4			
UAAGCUCUGUCAGGAUAUCCCUGUAAACGCAACGGAGAAGGGACAUGAGGAUCACCCAUGUGCGGGCCCAACGCGCUCGGGUCC [Dilacesole] (Eterna round: R96, puzzle: Exclusion NG 1)	63.6	23.6	35.1			
GGUGGACAUGAGGAUCACCCAUGUGAGGAUAUCGGCCGGUUCGCGGUGGCUGGCGUCUCGAGAAGGCGCAUAGU [Exclusion 1 V71] (puzzle: Exclusion 1)				28.7		
GCAGGUUAAGUCAGGAUAUACCUCUGGAAACAGAGGUAGAAGGGACAUGAGGAUCACCCAUGUUUCUCAUCUGC [Mod of Eli 3 - Jieux - Brourd's mod of Exclusion 4] (Eterna round: R97, puzzle: Brourd's mod of Exclusion 4)	85.6		19.2			
UUUAUUUUGCAAGGAUAUGUUUAAUUUUAGUUUCCUUAUACAUGAGGAUCACCCAUGUUAUACUUACAGAAGGUGCAUAAUUUU [JR_ExcNG2_Sub037] (Eterna round: R96, puzzle: Exclusion NG 2)		68.7				
CGAGUGUAAGGAUAUUCGGCGCCAGGGAACGACCUGGCGUAGAAGAAGGUACAUGAGGAUCACCCAUGUGGUUA [Issobi] (puzzle: Exclusion 4)				142		
AAAACAAACGAAGGAUAUGCGCGAAAAUGACUAGCAGAAGGUCGACACGGGCGGAUCCGACAUGAGGAUCACCCAUGUAAAACU [Tied] (Eterna round: R96, puzzle: Exclusion NG 1)	1200	389	490			
AAUAAUAGGGAGGAUAUCGUAUCGGAAACGAUACGAGAAGGUCUAACAUGAGGAUCACCCAUGUUCCUCAAUAA [Fiskers Ex 6 - 5] (puzzle: Exclusion 6)				40.6	68.3	45.7
